Patent WO2016170039A1 (dated 2016)

Biological target: T1, human angiopoietin 2 (human, UniProt O15123 19-496, limits assumed)
T1 construct: Bought (R&D Systems Cat.No. 623-AN) or produced in house; also called ANG-2; human ANG-2
T1 sequence: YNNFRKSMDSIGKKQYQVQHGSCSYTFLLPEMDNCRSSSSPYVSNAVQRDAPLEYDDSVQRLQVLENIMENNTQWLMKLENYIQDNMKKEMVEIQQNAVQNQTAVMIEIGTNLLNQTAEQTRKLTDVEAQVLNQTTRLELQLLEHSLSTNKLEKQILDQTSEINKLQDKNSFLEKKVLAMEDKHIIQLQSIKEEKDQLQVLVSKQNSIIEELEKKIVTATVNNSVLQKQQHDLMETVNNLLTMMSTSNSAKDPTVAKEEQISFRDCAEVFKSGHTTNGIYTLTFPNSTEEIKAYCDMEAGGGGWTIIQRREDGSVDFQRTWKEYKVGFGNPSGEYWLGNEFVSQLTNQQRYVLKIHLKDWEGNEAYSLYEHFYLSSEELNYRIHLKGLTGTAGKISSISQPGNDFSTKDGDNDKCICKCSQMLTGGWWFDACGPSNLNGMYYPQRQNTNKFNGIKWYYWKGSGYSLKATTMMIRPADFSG
Assay: ANG-2/Tie2 receptor interaction ELISA; antibody pre-incubated with ANG-2; the IC50 (Table 2) is not given

B1: <ANG-2> LC06 (antibody, IgG1, V domains shown)
VH: not shown
VL: QPGLTQPPSVSVAPGQTARITCGGNNIGSKSVHWYQQKPGQAPVLVVYDDSDRPSGIPERFSGSNSGNTATLTISRVEAGDEADYYCQVWDSSSDHYVFGTGTKVTVLG
binding result: binds
